Results: a protein production outcome set (Wang et al. 2014)

Test: label from the status in PepcDB records
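Note: failed if final PepcDB status was selected cloned or expressed and not failed if soluble or beyond.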

Sequence	protein production
MNANIMLNEDITPIGSDYDTVRGVIELLTLDYREQPSLEAIAARLGQSPTQLQKTFTRWAGLSPKAFLQAVTLDHAKRLLREEDLPLLETSIEVGMSGPGRLHDLFVTHEAMSPGEWKAKGGGLTIRYGFHASPFGLALVMITDRGLAGCAFADPGDERACFEDMAGRWPNADYVEDREATAPYAARIFEPAMWTADKPLRVVLLGTDFQVRVWKSLLKIPMGRAVTYSNIACDIGQPTASRAVGAAVGANPVSFVVPCHRAVGKSGALTGYHWGLTRKRAMLGWETGKALEHHHHHH	failed
MGSGSMLQSWNLKTSKRTGSFDAKSSINAVAISPDGNTLATGIRDNAIKLWNINDGKLIHTLTGHQGQVRTVAFSPDGTLLASGSSDGTVKLWNATTGKEINTFTAHKEQVWSVAFNPDGKTLASTGQDGSVKIWGVSPQLEHHHHHH	not failed
DEIFCRVYMPDHSYVTIRSRLSASVQDILGSVTEKLQYSEEPAGREDSLILVAVSSSGEKVLLQPTEDCVFTALGINSHLFACTRDSYEALVPLPEEIQVSPGDTEI	not failed
MKDPNSQYQIDYVLLFILFAIGIVSCCAIASAQASLPPFLQNVNFVLKQIQWYFIGFIAIGVIMIIDFDRYQKIAWYLYSFAMVLLIGLELQVPGAVTIKGATAWYRLPGIGNFQPSEIMKLFLIIVIGRIIANHNEKYFSQTIHDDFLLLGKIFATSLPPLLLIAKEPDLGNTMVISAMLAAMILVSGIRWRFIFGLVSGTFVAGSTLIYIFFTHTDFFKAHILKEYQLNRFYGWLAPYKYDAQGYQLRQAFLATGSGEMQGKGWENGQVYFPEPHTDFIFTNVAEQFGFLGASVIISLFFLLIFRMIHIALESNDPFGSYICAGTIGMFTFQVFQNIGMTIGLLPITGITLPLMSYGGSSLLTYMIAIGFILNVRSRTKIFMFK	failed
MDGQQLNRLLLEWIGAWDPFGLGKDAYDVEAASVLQAVYETEDARTLAARIQSIYEFAFDEPIPFPHCLKLARRLLELKQAASCPLP	not failed
MQEAEAIYQSGMKILNGSTRKNQKREAYRYLQKAAGMNHTKALERVSYALLFGDYLTQNIQAAKEMFEKLTEEGSPKGQTGLGFLYASGLGVNSSQAKALVYYTFGALGGNLIAHMVLGYRYWAGIGVLQSCESALTHYRLVANHVASDISLTGGSVVQRIRLPDEVENPGMNSGMLEEDLIQYYQFLAEKGDVQAQVGLGQLHLHGGRGVEQNHQRAFDYFNLAANAGNSHAMAFLGKMYSEGSDIVPQSNETALHYFKKAADMGNPVGQSGLGMAYLYGRGVQVNYDLALKYFQKAAEQGWVDGQLQLGSMYYNGIGVKRDYKQALKYFNLASQGGHILAFYNLAQMHASGTGVMRSCHTAVELFKNVCERGRWSERLMTAYNSYKDDDYNAAVVQYLLLAEQGYEVAQSNAAFILDQREATIVGENETYPRALLHWNRAASQGYTVARIKLGDYHFYGFGTDVDYETAFIHYRLASEQQHSAQAMFNLGYMHEKGLGIKQDIHLAKRFYDMAAEASPDAQVPVFLALCKLGVVYFLQYIREANIRDLFTQLDMDQLLGPEWDLYLMTIIALLLGTVIAYRQRQHQDIPVPRPPGPRPAPPQQEGPPEQQPPQ	failed
MSSPATTITFFFFFTLSSFFYITSSLQNNNNNKHTATVNSLNIPSAAAEITLVNPKLPPRSLSLTSSKKFEGSSNLVHLRYHMGPVLSSSPINIYVIWYGQWSRPHKSLIRDFLNSISDAKAPSPSVSEWWRTASLYTDQTGSNVSRSVLIAGEYSDSKYSHGQHLTRLTIQEVIASAARSASFPVDHKNGMYLVLTSHDVTMQDFCRAVCGFHYFTFPSMVGYTMPYAWVGQSGKQCPEVCAYPFALPGYMGHGGPGELRPPNGETGVDGMVSVIGHELAEVVSNPLINAWYAGEDPTAPTEIGDLCEGLYGSGGGGGYIGQVMRDREGKTFNMNGKGGRKFLVQWIWNPNLKACSGPNSVD	failed
MRVMAFVQARMGSTRLPGKSLMPVWNGMGVLEMTLRRALRARTLSGVVLCTSTDPACDALETLASGLGVQAFRGPEDDVLTRYALATERFEPDAVVRICADSPLVCPEGIDALVAFFRDEGLDYAAHAMDGTGLPDGLGCEVFTAAALAQAHAEATAPEDREHVSLFIRHRPERFRQATLAADAALRAPGVSLDVDTQDDLDALRRFIMALPPSEGPFWSADAIAPLARGLHTPPQGTSMDIASDDYHDFFIRDGKLIGEFEQMYRKSRHAPWHQDEACDKWFNKVSAALVGHALDDPSVRTVFEVGSGLGYFLSQFAGEGRTLTGTDVSATAVEKARALFPGISFEVDDIRFEGRRGPYDLCLMQAVCWCIFPHMDDVVRNVTATVRPGGYLFLGECFQPLDGPFAGKDVIPTPDALIGHFSHAFDTVADVRVTRGEMGGGPIIYWLGRRRGLEHHHHHH	not failed
MNLSQQNQHSNPITEAAKATFPYSVPMIAGFLFLGIAYGIYMKALGFGFLYPTLMALLIYAGSVEFIAAGALIAPFSPISVLLITLMISARQIFYGISMLEKYGIHIGKKRWYLITTLVDESFSLNYMAKIPPHLDKGWYMFFVSLYLHIYWVLGAAMGNLFGTVLPFNLKGVEFSMTALFLVIFAENWLKGKSHESSLLGLGIALVFLLIIGKEYFLIPTLIGIWLILTMRITKLETKLESLK	failed
MASFSAETNSTDLLSQPWNEPPVILSMVILSLTFLLGLPGNGLVLWVAGLKMQRTVNTIWFLHLTLADLLCCLSLPFSLAHLALQGQWPYGRFLCKLIPSIIVLNMFASVFLLTAISLDRCLVVFKPIWCQNHRNVGMACSICGCIWVVAFVMCIPVFVYREIFTTDNHNRCGYKFGLSSSLDYPDFYGDPLENRSLENIVQPPGEMNDRLDPSSFQTNDHPWTVPTVFQPQTFQRPSADSLPRGSARLTSQNLYSNVFKPADVVSPKIPSGFPIEDHETSPLDNSDAFLSTHLKLFPSASSNSFYESELPQGFQDYYNLGQFTDDDQVPTPLVAITITRLVVGFLLPSVIMIACYSFIVFRMQRGRFAKSQSKTFRVAVVVVAVFLVCWTPYHIFGVLSLLTDPETPLGKTLMSWDHVCIALASANSCFNPFLYALLGKDFRKKARQSIQGILEAAFSEELTRSTHCPSNNVISERNSTTV	failed
MIVKCPICDGTGKKVVKYKTCPVCEGTGFIDEFSPKQHMKRVSKRATYDLDYGEIPCPKCKGTGKVPVYAKCDFCGGSGKVVKCDRCGAIIGKYPDFKDRTLCDKCLKEEEERKKGLRNVYVFDELATFYDVEPGKFYKGVVTRIEKYGAFINLNEQVRGLLRPRDMISLRLENLNVGDEIIVQAIDVRPEKREIDFKYIPLTTYDLVKYEKEVPLSQIKDISQNLVEMRDQVVHIRGEVVQIVQTPGPTVFTITDGTDFAWVAALEIAGLRAHPDVKVGDIVDVIGRVTIRDGRLQIERIKLQKLEGDEAEEIRKKIEEEIDRRAEPAKDIPFLVKSEVLERLRPKMADVAKRIRKAVLDGRPIIIRHHADTDGYCGGIALEKAILPIIDKFAIDVDAIWHFFKRRPSKAPFYELEDVTKDLVFSIEDALKFGQKLPLIVLIDNGSTDEDIPAISKAKAYGIEVIVIDHHFPGEVVDGKVEVDDYVDAHVNPYLVGGDSNLTAGVLGTEIARMINPDVEDEIKHIPGIAVVGDHAKGEEAEQYVKIALDRLNELSKKYGKGRTYDREYLEKIALCMDFEAFYLRFMDGKGIVDDILATNIKEFGRHEELIDILYEQAMKMVERQMKAVIPALKTEFLENGIILNTLDVEKYAHKFTFPAPGKTTGFAHDYIVQKYGEDKPIITLSYGPDFGVVRATDAVHEKYNFNLNLIVEQLMEEIPEASLDGGGHECAGSLKFVEGLRDKVIGRFIEIIKNMKPKEQ	failed
MQETDSGAGPRTLRRGLMVLAALRDQGPRGLSVTDIARQTGIQRPTIYRLLAALLDAGLVVPLQGTKKYRTQLAADADLAAPNPRVRQMLPVLRRLADRTGDAVFLVVRDGDDSVSLHREIGSYPVQILATYAGKRQPLGVGSGSMALLAALPDEVAHAIVQRNSGRLDEYGGMTPQEMHRLIENTRARGYSVVGNHAVRGALGVGCALLDAQGAPVLAVSVTAIIDRMPAQRQREIAGWIGAELARLAPKA	failed
MNIQSELEFKFAHYLINNAVEASFCLGDNWQFLYVNDATCRMTEYSREQLLSMNLQDIDVDFALHDWEEIRQKNNYTFKTRYRSQSGRIFLVEMSLTFLEDQERRFSCVFVREKS	not failed
MDFLTEWIWFFLFVPLAALGGWIVGRRGGQRHGDTQVSRLSSTYFRGLNYLLNEQPDKAIELFLHIAELDKETFETQVALGHLFRRRGEVDRAIRLHQGLVQRGDLTDQQRVQALLALGEDYMKSGLLDRAETVFTELAQLDQRAPQALRHLIGIYQAERDWEKAIDNATRYEEVTGEPMGKLISQFECELADRYRGLGKTDDALQAIARAYQADGTSVRAGILEGRIEAERGHDEAAVRAFERAARHDPEYLPEIIPALMAAYRRVGDIAGARNFLSEMTEHYRGIAPVLALTQLMEAQDGVAPALAYLGRQLKDRPSVRGESALIDLTLAEGSDPVGTLQDLKHITDQLLVRNPSYRCTRCGFGAKTHHWQCPSCKEWGTVKPLLNYAVV	failed
MKKTLIALMLGTISFTTFANDYLPSGGYETLETRSGQLTFENGFEHGVPTNKTSQKLFDELDYQRAVQGYIWATPIVSFYKWKNDHYQTWGTENGQLVYQAGYESKLGGLTYNTSTPYLIGYMNLNNGPIVINLPDTQLRGAVHNMWQIGKEQMTKPGKYVIYKAGDVAPKVKGATLIAMDTNDFFFGVRLMNKDAKVRSTMMNSIQKGITDINGNQLTNKGIYHVKRGIDHKQPRGMEFWEVVNQAIQANPVQERDRMMMDMLRPLGIEKGKPFIPTPKQQSLLKEAAIVGEAMTKNIDFNKTGRLDHAEYGPKGNPWEIATASTPNQDRNNGMDLDGRAAWFYEAVTNDIAMHGMDNGGWGQVYLDNYYSGEKDHGLDGGKHYTLTIKNPNTYADLFWTITVYNVENRAIIENDLGRADVGSNIKGSVYNKDGSITLHFSPKKPKGVAEANWVQTNEKEGWFVYFRAYSPKKAFVDEEPKTLLPNFEEVK	failed
ESTLVNENVLENIPMGIIVVDINCNITSINDYALNIMDKNIESVIGMPVLDIIPTSDTPLVIKTKEKKLGKTQHINKHIVISNCCPIISNNNVIGALCVFQDIS	failed
MPDIVNTEQAQAWNGPEGAHWARNQDRWNAVNEGFDEPLLDAAGITGEDRVLDLGCGSGQTTRRAALRAPRGHVLGLDLSGPMLAEARSRAEREGVANVSFAQGDAQVHPFGAGAFDAAVSRYGVMFFADPVAAFGNVGRALRPGGRLAFVCPADAALNGWVTAMASLREVLPVGDFGQPGLPGMFSLAAPDRIGDVLTAAGFAGIDVNQVQAHGTWGRDAEDAAEFLLGTGPGRHLMERADPTARARARGILTDHLRTHEAADGTVRLLSTSWLTTATRPAATA	failed
MIVIYFFSTKSQQFFAYVWAIFPVIAFFLVSFYTLDFLFSPSYLIMVPVFTIMFKINYKKDYSFVALLKMSIRQFVISFLAFIASSSFSWSIILNSSVTFLIVYLFYSSATPMRYHSYLMMFTFCQLIQVKGNTFLMQSQVVAFLIGLFLLALTLNAWWQTGLRQLTSLKSRGHVRFFKSIQLNMKQQKLAVINFWHDLQQIFFGITSFKQFLESPDERVQRFRLAIRMSFTITLSFILMWSVGGIKIIWIPMNVFLLLHPVKAEMNTRIKTRFWGTLLGCFLSLFVVNWLQLPLTHLIVSSLIGIFVYALKPGTVLQVTMATIFGLCLATISLRGMYAAELRVSFVLLAIFVVCLIDLGLFVYQRILRF	failed
MPKLGMEPIRKAALVKATIVEIGRAGSLDVTVSQIAKRAGMSSALAHHYFGGKEALFIAAMRHVLSLYGAEVRGALLGAETPAARITAILQASFSATNFRREVVGAWLNFYVLAQTAPQARRLLAIYQRRLRSNLLVGLRPLAGERAADLADGLGALIDGLYLREVLKEGPPDSAAAVACARAYLNAHLKECPL	failed
